Test results published in patent US20040198648A1.

Target: human insulin receptor (IR), overexpressed in rat fibroblasts (HIRc B cells) (human) (UniProt P06213)
Experiment: cell-based or functional assay

insulin-induced IR autophosphorylation in intact HIRc B cells, rhAHSG at 1.8 µM: > 50%
Substance: recombinant human AHSG (α2-Heremans Schmid Glycoprotein) (from UniProt P02765 19-367)
